Experiments:
Experiment in all cases: cell-based or functional assay
[1] = biological target: WinZip-B1-DHFR[2:I114A] (murine) (UniProt P00375)
[2] = biological target: WinZip-B2 fused to DHFR[2:I114A] (clone of LibB-DHFR[2:I114A]) (murine) (UniProt P00375)
[3] = biological target: GCN4-DHFR[2:I114A] (murine)

Frequency of dominant pair at P12, competition selection (I114A) [1] | Selection factor, competition selection (I114A) [1] | frequency of the pair among colonies sequenced at P10 [1] | Frequency of dominant pair at P12, shuffling WinZip-A1 + LibB-DHFR[2:I114A] [2] | Selection factor, shuffling WinZip-A1 + LibB-DHFR[2:I114A] [2] | frequency of the pair among clones sequenced at P10 [2] | GCN4 zippers among sequences from passage 9 of model competition selection (of 24 sequences) [3] | Substance
82% | 3.2e+06 | 33% | 67% | 87000 | 3 of 5 clones | – | WinZip-A1-DHFR[1] (from UniProt P00375 1-107) (designed binder)
– | – | – | – | – | – | 0 | GCN4-DHFR[1] (from UniProt P03069 253-274; P00375 1-107)

— patent publication US6897017
